In publication PMC10272122 (2023):

Molecular target: PDF-2180 RBD-hFc (PDF-2180)
Assay: BLI

B1: ACE2 from Pipistrellus pipistrellus (Ppip ACE2) (receptor)
chain: TTEEEARDFLDKFNSEAENLSHESALASWDYNTNITDENAQKMNEADSKWSDFYKEQSKRAQAFPLQEIQNLTIKLQLQILQQNGSSVLTAEKSKRLSTILTTMSTIYSTGKVCNPNNPQQCFTLSGLEDIMEKSKDYHQRLWVWEGWRSEVGKQLRPLYEEYVVLKNEMARGNNYEDYGDYWRGDYETEGEDGYNYSRNQLMEDVDRIFLEIKPLYEQLHAYVRAKLMNAYPSRISPTGCLPAHLLGDMWGRFWTNLYNLTVPFEQKQNIDVTETMKKQSWDAEKIFKEAEKFYLSVGLYSMTQGFWNNSMLTEPSDGRQVVCHPTAWDLGEDDFRIKMCTKVTMDDFLTAHHEMGHIQYDMAYAKQPYLLRNGANEGFHEAVGEVMSLSVATPKHLKGMGLLPSDFSEDNETEINFLLKQALNIVGTLPFTYMLEKWRWMVFEGKIPKEQWMEKWWEMKREIVGVVEPLPHDETYCDPASLFHVANDYSFIRYFTRTILEFQFQEALCKIAKHEGPLHKCDISNSTEAGKKLKDMLELGKSKPWTYALNQIARTKEMDAKPLLNYFEPLFSWLKKQNGNSVGWSADWSPYSEQSLKVRISLISALGEKAYEWNDNEMYLFRSSVAYAMRVYFSKMNKTIPFTAEDVRVSDEKKRVSFKFFVTSPTNISDIIPRSEVEDAIRMSRSRINDA
Kd: 0.417 nM
koff: 5.54e-05 s⁻¹
